Laboratory results as given in patent US20210041458A1, “Lectin Assay For Assessing Glycoforms As An Early Marker In Disease” (Baruch S. Blumberg Institute, priority 2009, published 2021).
Substitutions are numbered along the chain they refer to. In names and notes the source's numbering stands. Entries after “also recorded” stand apart in the source; their conditions may differ.

What was measured:
[1] = Selectivity for fucose linkage; assay type: binding
IgG0 ligand [2] = experiment: Competition (indirect) ELISA: unbiotinylated AAL proteins against biotinylated AAL binding to IgG0 in serum; parameters: species or system human; details: for decrease in signal output versus control: compared with commercial (Vector) AAL
Procedure: 96 well plates are coated with sodium periodate (NaIO4) treated mouse IgG (1.0 ug/well). 3 ul of serum from a patient with cirrhosis (Gish 342) or serum from normal donors (Sigma) were diluted to 100 ul and added to antibody coated wells. Plates are washed and then incubated at room temperature for 30 minutes/shaking with equivalent amounts of either unbiotinylated commercial (Vector) AAL, unbiotinylated recombinant 10×-His tagged (rAAL 10×), or unbiotinylated recombinant 10×-His tagged mutant AAL (rAAL N129Q, N224Q)). Equivalent amounts of biotinylated AAL was then added to each well and incubated for 1 hour at room temperature/shaking. Plates are washed and incubated with streptavidin-800-IRDye as previously described. Plates are washed and fluorescence quantified using a LiCor Odyssey machine. Control samples measured biotinylated AAL binding to IgG0 in the absence of unbiotinylated AAL.
Competition experiments provide an indirect ELISA for measuring the ability of unbiotinylated commercial (Vector) and unbiotinylated rAAL proteins to interfere with binding of biotinylated AAL to the IgG0 ligand. It is a qualitative indication of the relative affinities of the untagged AAL proteins for the IgG0 ligand.

IgG0 ligand [3] = experiment: IgG0 ligand binding to AAL proteins coated on nickel NTA plates, fluorescence readout; parameters: species or system human; details: FIG. 2
Procedure: Equal amounts of recombinant AAL (wild type or mutants) containing 10× Histidine tags were coated to nickel NT A plates and incubated with increasing amounts of IgG0 ligand (X axis). Un tagged, commercially purchased AAL (AAL-V) was also coated to nickel NT A plates or on high affinity binding ELISA plates (AAL-Vc) and incubated with increasing amounts of IgG0 ligand. Plates were washed and incubated with fluorescently tagged anti-human lgG, washed and read in a fluorescence detector. Increasing relative fluorescence indicates higher binding affinity.

[4] = Surface plasmon resonance, tryptophan fluorescence and enzyme linked lectin assays; assay type: binding; details: rAAL from bacteria, isolated by nickel affinity chromatography
Procedure: Quantitative equilibrium binding of mutant and wild-type AAL for the selection ligand and other L-fucopyranosyl oligosaccharides are determined by BIAcore analysis and enzyme linked lectin assays (Oiausson et al).

[5] = multivalent; compared to other lectins; cited from earlier work
[6] = serum from a cirrhotic patient (Gish 342), FIG. 3

B1: N224Q: mutant Aleuria aurantia lectin with N224 changed to glutamine (protein, UniProt P18891 2-313, looked up, variant N224Q)
Fucose-specific lectin: PTEFLYTSKIAAISWAATGGRQQRVYFQDLNGKIREAQRGGDNPWTGGSSQNVIGEAKLFSPLAAVTWKSAQGIQIRVYCVNKDNILSEFVYDGSKWITGQLGSVGVKVGSNSKLAALQWGGSESAPPNIRVYYQKSNGSGSSIHEYVWSGKWTAGASFGSTVPGTGIGATAIGPGRLRIYYQATDNKIREHCWDSNSWYVGGFSASASAGVSIAAISWGSTPQIRVYWQKGREELYEAAYGGSWNTPGQIKDASRPTPSLPDTFIAANSSGNIDISVFFQASGVSLQQWQWISGKGWSIGAVVPTGTPAGW
modifications: 10xHis tag
notes: mutant Aleuria aurantia lectin with N224 changed to glutamine
selectivity for the 1-6 linkage against outerarm linkages [1]: more selective for the 1-6 linkage than outerarm

B2: commercial (Vector) AAL: untagged, commercially purchased AAL (Vector), eluted with L-fucose in manufacture (protein, UniProt P18891 2-313, looked up)
Fucose-specific lectin: B1 Fucose-specific lectin with Q224N
signal output (IgG0 ligand [2]; serum from a cirrhotic patient (Gish 342), control ~35, FIG. 3): ~20

B3: AAL M1(N129Q): recombinant 10× His-tagged mutant Aleuria aurantia lectin with N129 changed to glutamine (protein, UniProt P18891 2-313, looked up, variant N129Q)
Fucose-specific lectin: B1 Fucose-specific lectin with N129Q, Q224N
modifications: 10xHis tag
notes: recombinant 10× His-tagged mutant Aleuria aurantia lectin with N129 changed to glutamine
Limit of Detection (IgG0 ligand [3]; IgG0 ligand): 10 ng/mL
improvement of the Limit of Detection (IgG0 ligand [3]; IgG0 ligand): 10-100 fold
signal to noise ratio (IgG0 ligand [3]; increasing IgG0 ligand): highest signal to noise ratio

B4: rAAL: recombinant AAL produced in and isolated from bacteria using nickel affinity chromatography (protein, UniProt P18891 2-313, looked up)
Fucose-specific lectin: B1 Fucose-specific lectin with Q224N
modifications: His tag
affinity for the IgG0 ligand compared with commercially available AAL (IgG0 ligand [2]; Example 1): higher affinity
affinity in cirrhotic patients compared with controls (IgG0 ligand [2]; serum samples, FIG. 3): significantly higher affinity
binding affinities for fucosylated oligosaccharides compared with commercially prepared AAL [4]: substantially higher binding affinities

B5: rAAL (N129Q, N224Q): recombinant 10×-His tagged mutant AAL with both N129Q and N224Q (protein, UniProt P18891 2-313, looked up, variant N129Q N224Q)
Fucose-specific lectin: B1 Fucose-specific lectin with N129Q
modifications: 10xHis tag
notes: recombinant 10×-His tagged mutant AAL with both N129Q and N224Q
decrease in signal output versus control (IgG0 ligand [2]; [6]): greater decreases in signal output versus control

B6: AAL: 312 amino acid lectin with five binding sites for L-fucose or L-fucose-linked oligosaccharides (protein, UniProt P18891 2-313, looked up)
Fucose-specific lectin: B1 Fucose-specific lectin with Q224N
binding affinity for carbohydrate ligands [5]: micromolar; also recorded: micrormolar

B7: rAAL 10×: unbiotinylated recombinant 10×-His tagged wild-type AAL (protein, UniProt P18891 2-313, looked up)
Fucose-specific lectin: B1 Fucose-specific lectin with Q224N
modifications: 10xHis tag
notes: unbiotinylated recombinant 10×-His tagged wild-type AAL
decrease in signal output versus control (IgG0 ligand [2]; [6]): greater decreases in signal output versus control
